Data on four molecules can be found in US20250313621A1 (NXERA PHARMA UK, published 2025).

Numbering of substitutions follows the chain as printed.

The target in assay [1] is T1, Cynomolgus PAR2 on BacMam-infected HEK293 cells (cynomolgus).
T1 construct: whole, on cells; also called cyno PAR-2; Cyno PAR2
The assay is described as follows: flow cytometry on HEK293F-cynoPAR2 (3.0E+06 cells/mL, w/ NaN3), overnight at about 5 C, S/BG [continued]. On the technique in general: A flow cytometer gives signals particle by particle.

Assay [2] addresses T2, Wildtype human PAR2 expressed on cells (human, UniProt P55085 37-397).
T2 construct: also called huPAR2; WT FL-huPAR2
T2 sequence: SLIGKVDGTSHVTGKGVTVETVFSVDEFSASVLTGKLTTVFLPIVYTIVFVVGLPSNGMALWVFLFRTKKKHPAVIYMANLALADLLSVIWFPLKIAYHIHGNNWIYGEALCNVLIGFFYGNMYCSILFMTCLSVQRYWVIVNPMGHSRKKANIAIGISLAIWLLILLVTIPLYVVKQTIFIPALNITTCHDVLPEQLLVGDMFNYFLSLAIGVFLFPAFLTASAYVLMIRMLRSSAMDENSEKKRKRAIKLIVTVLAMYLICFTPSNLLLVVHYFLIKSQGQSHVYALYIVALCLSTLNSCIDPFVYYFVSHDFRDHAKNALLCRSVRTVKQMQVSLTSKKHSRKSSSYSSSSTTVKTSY
Nature of the assay: flow cytometry on HEK293F-humanPAR2 (3.0E+06 cells/mL), S/BG [continued].

The target of assay [3] is T3, Human PAR2 StaR incorporated into nanodiscs (construct not stated) (human, UniProt P55085 37-377, limits assumed).
T3 construct: also called nanodisc-embedded StaR
T3 sequence: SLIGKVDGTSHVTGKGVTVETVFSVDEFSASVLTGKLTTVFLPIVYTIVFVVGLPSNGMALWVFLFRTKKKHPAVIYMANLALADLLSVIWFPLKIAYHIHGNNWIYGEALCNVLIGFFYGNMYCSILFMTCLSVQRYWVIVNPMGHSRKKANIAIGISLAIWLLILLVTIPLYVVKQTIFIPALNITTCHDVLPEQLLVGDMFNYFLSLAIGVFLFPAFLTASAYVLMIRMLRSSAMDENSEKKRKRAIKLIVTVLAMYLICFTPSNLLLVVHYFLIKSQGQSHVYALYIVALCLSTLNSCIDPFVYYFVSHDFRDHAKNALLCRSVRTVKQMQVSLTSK
Nature of the assay: SPR Biacore; human PAR2 StaR incorporated into nanodiscs. Background: In SPR one partner is held on a chip, and binding of the other changes the refractive index at the surface.

Assay [4] has as its target T4, Mouse PAR2 on Flp-In CHO cells (mouse, UniProt P55086 39-399).
T4 construct: whole, on cells
T4 sequence (looked up): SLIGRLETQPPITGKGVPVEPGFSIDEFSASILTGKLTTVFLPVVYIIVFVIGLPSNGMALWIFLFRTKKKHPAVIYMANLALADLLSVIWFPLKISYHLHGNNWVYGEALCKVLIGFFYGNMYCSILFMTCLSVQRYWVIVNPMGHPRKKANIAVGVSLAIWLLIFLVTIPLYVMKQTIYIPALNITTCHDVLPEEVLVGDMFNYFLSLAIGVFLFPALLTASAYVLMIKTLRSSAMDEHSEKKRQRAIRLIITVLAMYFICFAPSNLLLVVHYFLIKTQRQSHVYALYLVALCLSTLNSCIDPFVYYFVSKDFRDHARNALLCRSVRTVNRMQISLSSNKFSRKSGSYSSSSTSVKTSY
The assay is described as follows: cell binding, flow cytometry/IntelliCyt.

Assay [5] addresses T2, Wildtype human PAR2 expressed on cells. The assay is described as follows: cell-based or functional assay.
Assay [6] shares this target. Nature of the assay: cell-based or functional assay. This is another data set of the same source.
For assay [7], the target named is T5, PAR2-3: P157: 1-377, glycosylated, pBacMamHisStrepII, full length (human, UniProt P55085 26-377).
T5 construct: detergent-solubilised analyte in SPR, or on infected cells in flow cytometry; also called FL-N PAR2 StaR; FL-N StaR; not shown: C-terminal StrepII and deca-histidine tags
T5 sequence: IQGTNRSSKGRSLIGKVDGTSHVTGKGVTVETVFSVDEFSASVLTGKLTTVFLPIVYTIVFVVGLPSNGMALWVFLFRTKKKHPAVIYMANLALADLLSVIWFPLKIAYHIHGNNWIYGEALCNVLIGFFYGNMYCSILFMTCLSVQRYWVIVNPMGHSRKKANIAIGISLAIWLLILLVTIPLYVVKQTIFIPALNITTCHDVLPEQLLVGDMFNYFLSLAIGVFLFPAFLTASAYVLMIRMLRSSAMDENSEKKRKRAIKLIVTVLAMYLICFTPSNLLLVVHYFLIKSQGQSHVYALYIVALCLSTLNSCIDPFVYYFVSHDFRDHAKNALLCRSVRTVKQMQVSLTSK
The assay is described as follows: SPR Biacore T200; IgG captured on anti-human IgG, 250 nM PAR2 analyte; 1:1 model. How it is done:
The assay of PAR2 interaction with anti-PAR2 antibodies was carried out using a Biacore T200 instrument (GE Healthcare). Anti-human IgG antibody (Human Antibody Capture Kit, GE Healthcare) was immobilised by amine coupling on a sensor chip CM3 (GE Healthcare) to a surface density of 3500 to 4500 resonance units (RU). Immobilisation was carried out at 25° C. in HBS-EP+ buffer (GE Healthcare). The buffer was then changed to 50 mM HEPES, pH 7.5, 150 mM NaCl, 0.02% LMNG, 0.002% CHS. Each cycle of the PAR2-antibody interaction assay consisted of antibody capture (100 nM antibody injected for 2 min at a flow rate of 5 μL/min), PAR2 injection (blank or 250 nM, with contact and dissociation times of 2 and 3 minutes, respectively, at a flow rate of 20 μl/minute), and chip surface regeneration (30 seconds at 20 μl/minute) using the regeneration solution from Human Antibody Capture Kit (GE Healthcare). […] Measurements between each experimental data set were within the acceptable margins for this methodology.
The antibodies were captured on anti-human IgG chip surface followed by injection of 250 nM PAR2. The data were fitted to 1:1 interaction model.

In assay [8] the target is T5, PAR2-3: P157: 1-377, glycosylated, …. The assay is described as follows: SPR Biacore; IgG captured on anti-human IgG, 100 nM PAR2 analyte; 1:1 model. As for the experimental part:
The antibodies were captured on anti-human IgG chip surface followed by injection of 100 nM PAR2. The data were fitted to 1:1 interaction model except for clone ‘Y021160’ in which case heterogeneous ligand model was used and component with slow dissociation was used for comparison.
For three purified IgG1f_AEASS clones Y021171, Y022054 and Y022063 affinities to human PAR2-3 variant (P157: 1-377, glycosylated, pBacMamHisStrepII, full length) were determined by SPR immobilizing the IgG and probing with detergent (LMNG/CHS) solubilized FL-N PAR2 StaR. Affinities were 22 nM and 20 nM for Y022063 and Y021171, respectively.

The target of assay [9] is T2, Wildtype human PAR2 expressed on cells. The assay is described as follows: cell-based or functional assay. This is another data set of the same source.

B1: Fab Y022870 (Fab, V domains shown)
VH: EVQLLESGGGLVQPGGSLRLSCAASGFSFSRYAITWVRQAPGKGLEWVSTISALGLETYYAESVRGRFTISRDNSKNTLYLQMNSLRAEDTAVYYCARGFHYTHSGKRYYYPFDIWGQGTLVTVSS
VL: QSALTQPASVSGSPGQSITISCTGTSSDVGSYNLVSWYQQHPGKAPKLMIYEGSKRPSGVSNRFSGSKSGNTASLTISGLQAEDEADYYCSQYATFIAFAVFGGGTKLTVLG
Broadly, the EC50 (read off the curve) is the concentration that produces a half-maximal response. A low value points to greater potency. Consider B1, for which, in [1], the half-maximal effective concentration (EC50 (read off the curve)) was around 2 nM.

B2: Fab Y022877 (Fab, V domains shown)
VH: B1 VH with S28T, I34M, A53G, L56Q, T58A, E62G, R65K
VL: B1 VL
Take B2: in [2], the half-maximal effective concentration (EC50 (read off the curve)) was around 10 nM.

B3: Fab Y022883 (Fab, V domains shown)
VH: B1 VH with S30T, T35S, T50V, A53G, L54H, L56S, T58A, Y59N, R65K
VL: B1 VL
Consider B3, for which the 50% effective concentration (EC50 (read off the curve)) in [1] was around 4 nM.

B4: Y021171 (antibody, V domains shown)
VH: EVQLVESGGGLVKPGGSLRLSCAASGFTFSSYSINWVRQAPGKGLEWVSSISSSSSYTYYAESVKGRFTISRDNAKNSLYLQMNSLRAEDTAVYYCARAASGFAIFDYWGQGTLVTVSS
VL: DIQMTQSPSSVSASVGDRVTITCRASQGISSWLAWYQQKPGKAPKLLIYAASSLQSGVPSRFSGSGSGTDFTLTISSLQPEDFATYYCQQTHYVPLTFGQGTKVEIKR
As usually defined, the Kd is the equilibrium constant for the complex coming apart. The term koff denotes a measure of how fast the partners let go of each other. Read a high koff as fast dissociation. For orientation: kon means the second-order rate constant of association. Low readings indicate slow association, high ones fast association. In the case of B4, in [3], the dissociation constant Kd is 31 nM, the off-rate (koff) was 0.037 s⁻¹ and the on-rate (kon) is 1.2e+06 M⁻¹ s⁻¹. The binding result in assay [4] is listed as “no binding”. The “% Max Inhibition, Bovine Trypsin challenge, IP-One” value in assay [5] was found to be 19%. In addition, the “% Max Inhibition, AP challenge, IP-One” value in assay [6] stood at 163%. In assay [7], this molecule showed a Kd of 20 nM, a dissociation rate constant (koff) of 0.011 s⁻¹ and an association rate constant (kon) of 530000 M⁻¹ s⁻¹. In [8], this molecule yielded an equilibrium dissociation constant (Kd) of 70 nM, a koff of 0.029 s⁻¹ and a kon of 410000 M⁻¹ s⁻¹. For the same molecule, the “% Max Inhibition AP, IP-One” value in assay [9] amounted to 32%.
